Data from the Human Domainome abundance scans (Beltran et al. 2025).
± gives the uncertainty stated by the source.

B1: Histidine--tRNA ligase, cytoplasmic, residues 8 to 45; numbered along this chain, P12081 (parent)
chain: EELVKLQGERVRGLKQQKASAELIEEEVAKLLKLKAQL
B2: Poly(rC)-binding protein 1, residues 278 to 350; numbered along this chain, Q15365 (parent)
chain: TQTTHELTIPNNLIGCIIGRQGANINEIRQMSGAQIKIANPVEGSSGRQVTITGSAASISLAQYLINARLSSE

Variants of: B1
Assay: abundance fitness (aPCA) (normalised: wild type 0, dead -1); higher = more abundant; growth selection in yeast, the domain comes from the species named
Details: Homo sapiens

Abundance fitness of substitutions, site by site:
Q37: V -0.173 ± 0.093 | P 0.083 ± 0.077 | L -0.164 ± 0.072 | M -0.02 ± 0.11 | F -0.693 ± 0.16 | A 0.152 ± 0.089 | I -0.29 ± 0.075 | Y -0.532 ± 0.1 | C -0.057 ± 0.12 | E 0.28 ± 0.16 | R -0.143 ± 0.074 | S 0.065 ± 0.076 | G 0.191 ± 0.089 | T -0.113 ± 0.075 | D 0.119 ± 0.12 | N -0.04 ± 0.11 | K 0.041 ± 0.091 | H -0.224 ± 0.097
L38: D 0.003 ± 0.26 | W -0.154 ± 0.2 | N -0.05 ± 0.19 | V -0.209 ± 0.18 | P -0.026 ± 0.08 | F -0.526 ± 0.12 | T 0.034 ± 0.094 | S 0.009 ± 0.093 | H -0.012 ± 0.15 | A 0.15 ± 0.14 | E 0.204 ± 0.11 | R -0.067 ± 0.12 | K 0.14 ± 0.25 | I -0.389 ± 0.11 | Q 0.166 ± 0.1 | M 0.193 ± 0.13
K33: S 0.071 ± 0.074 | P -0.056 ± 0.097 | I -0.407 ± 0.14 | H -0.039 ± 0.084 | L -0.34 ± 0.083 | T -0.093 ± 0.095 | R -0.109 ± 0.075 | V -0.436 ± 0.083 | Y -0.313 ± 0.1 | Q 0.037 ± 0.1 | N -0.203 ± 0.26
L34: R -0.151 ± 0.097 | T -0.066 ± 0.091 | K -0.1 ± 0.094 | P 0.209 ± 0.089 | I -0.176 ± 0.085 | H -0.06 ± 0.097 | C -0.197 ± 0.078 | A -0.054 ± 0.094 | Y -0.093 ± 0.093 | D 0.05 ± 0.12 | V -0.064 ± 0.093 | G -0.128 ± 0.079 | M 0.121 ± 0.12 | W -0.237 ± 0.088 | F -0.148 ± 0.095 | E 0.083 ± 0.084 | Q 0.061 ± 0.11
K35: N 0.597 ± 0.12 | V 0.271 ± 0.086 | M 0.277 ± 0.11 | R -0.005 ± 0.077 | I -0.335 ± 0.096 | W -0.936 ± 0.26 | C 0.383 ± 0.09 | L -0.051 ± 0.073 | T 0.392 ± 0.076 | Q 0.414 ± 0.14 | F -0.893 ± 0.11 | E 0.193 ± 0.12 | G 0.78 ± 0.098 | D 0.227 ± 0.094 | A 0.627 ± 0.1 | Y -0.518 ± 0.098 | H -0.532 ± 0.091 | P 0.394 ± 0.087 | S 0.611 ± 0.07

Variants of: B2
Assay: as above
Details: Homo sapiens

Abundance fitness, by site and new letter:
Q2: K 0.101 ± 0.046 | M 0.075 ± 0.054 | D 0.052 ± 0.073 | R 0.054 ± 0.037 | W 0.017 ± 0.04 | Y 0.082 ± 0.087 | C -0.263 ± 0.064 | P -0.128 ± 0.079 | T 0.142 ± 0.051 | V 0.015 ± 0.043 | E -0.077 ± 0.044 | A -0.177 ± 0.041 | G 0.031 ± 0.035 | I 0.118 ± 0.093
E6: F -0.088 ± 0.14 | K 0.113 ± 0.068 | A 0.002 ± 0.043 | C 0.168 ± 0.061 | H 0.232 ± 0.11 | I 0.116 ± 0.18
T4: P -0.271 ± 0.077 | Q -0.087 ± 0.073 | S 0.008 ± 0.053 | L -0.217 ± 0.055 | R -0.155 ± 0.041 | N -0.138 ± 0.17 | Y 0.013 ± 0.1 | D -0.284 ± 0.084 | F -0.182 ± 0.14 | E -0.113 ± 0.066 | W -0.31 ± 0.063 | A -0.109 ± 0.053 | M -0.189 ± 0.073 | H -0.26 ± 0.13 | I -0.292 ± 0.15 | V -0.088 ± 0.046
T3: K 0.257 ± 0.073 | H 0.147 ± 0.1 | N 0.113 ± 0.095 | R 0.119 ± 0.035 | P -0.16 ± 0.078 | Q 0.11 ± 0.051 | L 0.079 ± 0.047 | E 0.285 ± 0.052 | V 0.023 ± 0.045 | I -0.345 ± 0.21 | S 0.119 ± 0.046 | A 0.048 ± 0.05 | G 0.167 ± 0.033 | M 0.161 ± 0.068 | C -0.009 ± 0.09 | D 0.053 ± 0.091 | Y -0.221 ± 0.17
T1: Y -0.072 ± 0.16 | C -0.218 ± 0.12 | A -0.086 ± 0.066 | N 0.194 ± 0.12 | K -0.191 ± 0.12 | E 0.106 ± 0.085 | I 0.094 ± 0.084 | P -0.141 ± 0.15 | D 0.167 ± 0.097 | M 0.058 ± 0.088 | V 0.061 ± 0.058 | W -0.287 ± 0.083 | G -0.02 ± 0.048 | Q -0.559 ± 0.24 | S 0.012 ± 0.061
H5: E -0.073 ± 0.061 | D -0.323 ± 0.073 | W 0.091 ± 0.048 | F -0.32 ± 0.2 | V 0.217 ± 0.042 | S 0.091 ± 0.056 | Q 0.253 ± 0.059 | G -0.081 ± 0.038 | Y -0.083 ± 0.11 | I 0.113 ± 0.091 | A 0.139 ± 0.043 | N -0.173 ± 0.088 | P -0.699 ± 0.19 | R 0.091 ± 0.041 | T 0.066 ± 0.085 | C 0.104 ± 0.084 | M 0.136 ± 0.057 | K 0.107 ± 0.069
